{"source": "the nanobody polyreactivity screen of Harvey et al. (2022)", "data": [{"experiment": "yeast display, Sf9 membrane polyspecificity reagent, FACS + sequencing; frameworks hold sequencing errors", "procedure,_shortened": "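Synthetic nanobody libraries on Saccharomyces cerevisiae BJ5465 were galactose-induced for 36–48 hours, stained 1 hour at 4 °C with 10% biotinylated, detergent-solubilized Sf9 membrane reagent and enriched on streptavidin microbeads. FACS then separated cells into low and high (top ~1%) gates by anti-HA (expression) and streptavidin (reagent binding) fluorescence. Genes were colony-PCR amplified, MiSeq 2 × 250 sequenced and CDR-length filtered. A clone's polyreactivity label is that of its gate of origin.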", "values": [{"sequence": "QVQLVESGGGLVQAGGSLRLICAASGSTFFSYAMGWYRPAPGKERQLVAAITRSGGSTYYADSVKGRFTISRDNAKNTVFLQMNSLKPEDTAVYYCNADLGIGYDYWGQGTHVTVSS", "polyreactivity (PSR sort gate)": "high polyreactivity"}, {"sequence": "QVQLVESGGCLVQAGGSLRLSCAASGSTFDGNAMGWYRQAPGKERELVATINSGSSTTYADSVKGRFTISRDNAKNTVYLQMNSLKPEDTAVYYCNVDSGSDSLVYSVRYNYWGQGTQVTVSS", "polyreactivity (PSR sort gate)": "low polyreactivity"}, {"sequence": "QVQLVESGGGLVQAGGSLRLSCAASGFTFYYYAMGWYRQAPGKERELVAAISRSGGSTYYADSVKGRFTISRDNAKNTVYLQMNSLKPEDTAVYYCAARRLVGAERPGYDYWGQGTQVTVSS", "polyreactivity (PSR sort gate)": "high polyreactivity"}, {"sequence": "QVQLVESGGGLVQAGGSLRLSCAASGSIFPVNAMGWSRQAPGKERELVATITWRGGRTYYADSVKGRFTISRDNAKNTVYLQMNSLKPEDTAVYYCAARLLYRHFGYWGQGTQVTVSS", "polyreactivity (PSR sort gate)": "high polyreactivity"}, {"sequence": "QVQLVESGGGLVQAGGSLRLSCAASGRSFNPYAMGWYRQAPGKERELVAAITNSGGSTYYADSVKVRFTISRDTAMNTFYLQMNSLKPEDTAVYYCNARRYPRYYYWGQGTQVTGSS", "polyreactivity (PSR sort gate)": "high polyreactivity"}, {"sequence": "QVQLVESGGGLVQAGGSLRLSCAASGSILHAYALGWYRQAPGTERELVAAINWSGGSTYYADSVKGRFTISRDNAKNTVYLQMNSLKPEDTAVYYCAKVWRYGRYEYGYWGQGTQVTVSS", "polyreactivity (PSR sort gate)": "high polyreactivity"}, {"sequence": "QVQLVESVGGLVQAGGSLRLSCAAYGLTFRYYAMGWYRQSPGKESELDAAISSGGSTNYADSVKGRFTISRDNAKNTVYLQMNSLKPEDTAVYYCAAVSNSKWGRWGRAKYNYWGQGTQVTVSS", "polyreactivity (PSR sort gate)": "high polyreactivity"}, {"sequence": "QVQLVESGGGLVQAGGSLLLSCAASGRIFRPYAMGWYRQAPGKERELVAAISSSGGSTYYADSVKGRFTISRDNAKNTVYLEMNSLKPEDTAVYYCAARITQISYGSEIEHPYYYWGQGTQVTVSS", "polyreactivity (PSR sort gate)": "high polyreactivity"}, {"sequence": "QVQLVESGGGLVQAGGSLRLSCAASGRIFRDYAMGWYRQAPGNERELVAAISWSGGSTYYADSVKGRFTISRDNAKNTVYLQMNSLKPEDTAVYYCAGDYYGGDSYRYDYWGQGTQVTVSS", "polyreactivity (PSR sort gate)": "low polyreactivity"}, {"sequence": "QVQLVESGGGLVQAGGSLRLSCAASGRTFYQYAMGWYRQAPGKERELVAAISRSGTSTYYADSVKGRFTISRDNAKITVYLQMNSLKPEDTAVYYCATSTGRGYSWGQGTQVTVSS", "polyreactivity (PSR sort gate)": "high polyreactivity"}, {"sequence": "QVQLVESGGGLVQAGGSLRLSCPSSGFTFSAYAMGWYRQAPGKERELVAAISTRGGSTRYADSVKGRFTISRDNAKNTVNVQMNSLTPDDTAVYYCAADTRSFYRYDYWGQGTQVTVSS", "polyreactivity (PSR sort gate)": "high polyreactivity"}, {"sequence": "QVQLVESGGGLVQAGGSLRLSCAAYGIIIGNNAMGCYRQAPGKERELVAAISRRGGSTYYADSVKGRFTISRDNAKNTVYLQMNSLKPEDTAVYYCAADIYRYNSYDYWGQGTQVTVSS", "polyreactivity (PSR sort gate)": "low polyreactivity"}, {"sequence": "QVQLEESGGGLVQAGGSLRLSCPASGIIFGSYAMGWSRQAPGKERELVAAITSDGITNYADSVKGRFTISRDNGKNTVYLPMNSLKPEDTAVYYCAAPGPLGGSDYWGQGTQVTVSS", "polyreactivity (PSR sort gate)": "low polyreactivity"}, {"sequence": "QVQLVESGGGLVQAGGSLRLSCAASGITLYRYVMGWYRQAPGKERELVADISGRGTSTYYADSVKGRFTISRDNAKNTVYLQMNSLKPEDTAVYYCNAEYTKTGAQREQSFLTRRGPGYDYWGQVTQVTVSS", "polyreactivity (PSR sort gate)": "low polyreactivity"}, {"sequence": "QVQLVESGGGLVQAGGSLRLSCAASGRIFGGNAMGWYRQAPGKERELVAAINSSGGRTYYADSVKGRFTISRDNAKNTVYLQMNSLKPEDTAVYYCAARVGGNWYDYWGQGTQVTVSS", "polyreactivity (PSR sort gate)": "high polyreactivity"}, {"sequence": "QVHLVESGGGLVKAGGSLRLSCAASGRIFYTYAMGWYRQAPGKERELVAAISRSGGRTYYADSVKGRFTISRDNGKNTVYLQMNSLKPEDNAVYYCNAVENWLFSSHDYWGQGTQVTVSS", "polyreactivity (PSR sort gate)": "low polyreactivity"}, {"sequence": "QVQLVESGGGLVQAGGSLRLICAASGSIFYVYAMGWYRQSPGKERELDAAINTSGGSTFYADSVKGRFTISRDNAKNTVYLQMNSLKPEDTAVYYCAAERYRYRSTDTMGYWGQGTQVTVSS", "polyreactivity (PSR sort gate)": "low polyreactivity"}, {"sequence": "QVQLVESGGGLVQAGGSLRLSCAASGSIFRYNALGWYRQAPGKEREFVAAITRSGGSTYADSVKGRFTISRDNAKNTVYLQMNSLKPEDTAVYYCAATFKWYSHTKPRFDYWGQGTQVTVSS", "polyreactivity (PSR sort gate)": "low polyreactivity"}, {"sequence": "QVQLVESGGGLVQAGGSLRLSCAASGSIFDLIAMGWYRQAPGKERELVAAISSGGGTYYADSVKGRFTISRDNAKNTVYLQMNSLKPEDTAVYYCNRVTRWTYNYWGQGTQVTVSS", "polyreactivity (PSR sort gate)": "high polyreactivity"}, {"sequence": "QVQLVESGGGLVQAGGSLRLSCAASGRIFRYYAMGWYRQAAGKERELVAAIRYRSGGTSYADSVKGRFTISRDNAKNTVYLQMNSLKPEDTAVYYCNADKRLRGHGYDYWGQGTQVTVSS", "polyreactivity (PSR sort gate)": "high polyreactivity"}, {"sequence": "QVQLVESGGGLVHAGGSIRLSCAASGRIFDYNVMGWYRQAQGTERELVAAISWDGDSTYYADSVKGRFTISRDNAKHTVYLQKNSLKPEDTAVYYCNRVEGRTRWADEMNYWGQGTQVTVSS", "polyreactivity (PSR sort gate)": "low polyreactivity"}, {"sequence": "QVQLVESGGGLVQAGGSLRLSCAASGSIFPDYALGWSRQAPGKESELVAAITRRDDSTYYADSVKGRFTISRDKAKNTVYLQMNSLKPEDTAVYYCNASALDPLYAKDDYWGQGTQVTVSS", "polyreactivity (PSR sort gate)": "low polyreactivity"}, {"sequence": "QVQLVESGAGLVQAGGSLRLSCAASGRTFWSNAMGWYRQAPGKEREFVAAIRSTVGSTYYADSVKGRFTISRDNAKNTVYLQMNSLNPEDTAVYYCYVSSGYYAYYYWGQGTQVTVSS", "polyreactivity (PSR sort gate)": "high polyreactivity"}, {"sequence": "QVQLVESGGGLVQAGGSLRLSCAASGSIFGYYAMGWYRQAPGKERELVAAISGSGGSTYYADSVKGRFTISRDYAKNTVYLQMNSLKPEDTAVYYCAARWQWLNGYYYWGQGTHVTVSS", "polyreactivity (PSR sort gate)": "high polyreactivity"}, {"sequence": "QVQLGESGGGLVQAGGSLRLICAASGRTFKKYPMGWYRQAPGKERDVVAAISWSGGTTYYAHSEKGRFTISRDTAKNTVYLQMNSLKPEDTAVYYSAARVSRTGHGYYYYWGQVTQVTVSS", "polyreactivity (PSR sort gate)": "high polyreactivity"}, {"sequence": "QVQLVESGGGLDQAGGSLRLSSAASGLTFGGNAMGWYRQAPGKERELVAAISWSDDTTDYADSVKGRFTISRDNAKNTVYLQMNSLKPEDTAVYYCAARLPFEHVEYWGQGTQVTVSS", "polyreactivity (PSR sort gate)": "low polyreactivity"}, {"sequence": "QVQLVESGGGIVQAGGSLRLTCAASGSTFEIYAMGWYRQAPGKERELVAAISSGGSTNYADSVKGRFTISRDNAKNTVYLQMNSLKPDDTAVYDCAAVLYSRLYWYRLDYWGQGTQVTVSS", "polyreactivity (PSR sort gate)": "low polyreactivity"}, {"sequence": "QVQLVESGGGLVQAGGSLRLSCAASGSIFRAYAMGWYRQAPGKERELVAAITRGGSTNYADSVKGRFTISRDNAKNNVYLQMKSLKPEDTAVYYCAAQNYWYYPRRFDYWGQGTQVTVSS", "polyreactivity (PSR sort gate)": "high polyreactivity"}, {"sequence": "QVQLVESGGGLVQAGGSLRLSCAASGIIFSIYVMGWYRQAPGKERELVAAISRSGGSTYYADSVKGRFTISRDNAKNTVYLQMNSLKPEDTAVYYCAKKPTSTYQPDSPRWSDYWGQGTQVTVSS", "polyreactivity (PSR sort gate)": "high polyreactivity"}, {"sequence": "QVQLVESGGGLVQAGGSLRLSCAASGRIFRYYAMGWYRQAPGKERELVAAISGNGGRTSYADSVKGRFTISRDTAKNTVYLQMNSLNPEDTAVYYCAKYPVQSDYLFDHWGQGTQVTVSS", "polyreactivity (PSR sort gate)": "high polyreactivity"}, {"sequence": "QVHLVESGGGLLQAGGSLRLSCAASGRTSDSNAMGWYRQAPGKETELVAAITISGVSTYYADTVKGRFTISRDNAKNTVYLQMNSLKPEDTAVYYCAKDPTFSSSFAVSLGFDSWGQGTQVTVSS", "polyreactivity (PSR sort gate)": "low polyreactivity"}, {"sequence": "QVQLVESGGGLVQAGGSLRLSCAASGFTFYYNAMGWYRQAQGKERELVAAMSRSGGRTYYADSVKGRFTISRDNAKNTVYLQMNSLKPEDTAVYYCNRRTRPDGGESDYWGQGTLVTVSS", "polyreactivity (PSR sort gate)": "high polyreactivity"}]}]}
